Residue numbers refer to the chain shown, from its start. Read-outs that look alike come from different tables or passages of the source.
T1: mouse OX40 receptor, cell-expressed (DO11.10-mOX40) (mouse, UniProt P47741 20-272)
T1 sequence: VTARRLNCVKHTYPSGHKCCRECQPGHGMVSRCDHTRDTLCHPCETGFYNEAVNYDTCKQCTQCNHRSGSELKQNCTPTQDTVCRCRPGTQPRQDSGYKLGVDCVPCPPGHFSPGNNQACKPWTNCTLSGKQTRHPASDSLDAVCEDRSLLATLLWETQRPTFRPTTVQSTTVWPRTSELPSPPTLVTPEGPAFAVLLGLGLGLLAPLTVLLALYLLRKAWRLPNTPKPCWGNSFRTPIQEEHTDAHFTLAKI

T2: human NGFR (human, UniProt P08138 29-250, limits assumed)
T2 construct: Amine-coupled to a CM5 chip
T2 sequence (looked up): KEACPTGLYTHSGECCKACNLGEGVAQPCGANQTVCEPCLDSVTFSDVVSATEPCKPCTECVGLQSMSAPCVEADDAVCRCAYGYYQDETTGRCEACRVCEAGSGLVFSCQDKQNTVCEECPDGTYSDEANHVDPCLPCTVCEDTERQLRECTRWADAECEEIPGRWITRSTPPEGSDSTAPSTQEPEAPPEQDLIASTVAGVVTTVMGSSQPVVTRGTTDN

T3: human TNFRII (human, UniProt P20333 23-257, limits assumed)
T3 construct: Amine-coupled to a CM5 chip
T3 sequence (looked up): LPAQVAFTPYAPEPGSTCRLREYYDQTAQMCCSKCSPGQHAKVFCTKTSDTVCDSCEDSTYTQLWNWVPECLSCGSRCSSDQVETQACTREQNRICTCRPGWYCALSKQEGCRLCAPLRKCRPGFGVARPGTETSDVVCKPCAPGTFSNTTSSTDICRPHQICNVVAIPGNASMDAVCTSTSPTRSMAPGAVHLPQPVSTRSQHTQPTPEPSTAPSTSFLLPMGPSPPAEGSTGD

T4: human TNFRI (human, UniProt P19438 30-211, limits assumed)
T4 construct: Amine-coupled to a CM5 chip
T4 sequence (looked up): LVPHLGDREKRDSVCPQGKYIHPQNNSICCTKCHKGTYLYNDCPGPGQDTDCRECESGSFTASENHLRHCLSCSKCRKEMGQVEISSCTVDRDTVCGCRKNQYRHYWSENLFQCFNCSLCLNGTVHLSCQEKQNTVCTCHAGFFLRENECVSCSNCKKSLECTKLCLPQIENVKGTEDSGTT

T5: human OX40 receptor, cell-expressed (DO11.10-hOX40) (human, UniProt P43489 29-277)
T5 construct: also called CD134; TNFRSF4
T5 sequence: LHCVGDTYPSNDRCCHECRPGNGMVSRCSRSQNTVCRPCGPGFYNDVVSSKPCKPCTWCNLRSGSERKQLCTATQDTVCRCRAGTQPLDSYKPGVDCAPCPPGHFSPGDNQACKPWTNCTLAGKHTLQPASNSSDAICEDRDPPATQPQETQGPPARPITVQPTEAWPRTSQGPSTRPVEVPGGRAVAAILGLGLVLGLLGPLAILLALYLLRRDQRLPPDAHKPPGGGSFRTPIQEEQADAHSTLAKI

B1: G1AA/OX86 (antibody, human IgG1, kappa, L234A L235A, V domains shown)
VH: QVQLKESGPGLVQPSQTLSLTCTVSGFSLTGYNLHWVRQPPGKGLEWMGRMRYDGDTYYNSVLKSRLSISRDTSKNQVFLKMNSLQTDDTAIYYCTRDGRGDSFDYWGQGVMVTVSS
VL: DIVMTQGALPNPVPSGESASITCRSSQSLVYKDGQTYLNWFLQRPGQSPQLLTYWMSTRASGVSDRFSGSGSGTYFTLKISRVRAEDAGVYYCQQVREYPFTFGSGTKLEIKR
notes: also called anti-mouse OX40 mAb OX86 in a human IgG1 backbone with the LALA mutation
B2: FS20m-232-91AA/4420 (bispecific antibody, human IgG1, kappa, L234A L235A)
heavy: EVKLDETGGGLVQPGRPMKLSCVASGFTFSDYWMNWVRQSPEKGLEWVAQIRNKPYNYETYYSDSVKGRFTISRDDSKSSVYLQMNNLRVEDMGIYYCTGSYYGMDYWGQGTSVTVSSASTKGPSVFPLAPSSKSTSGGTAALGCLVKDYFPEPVTVSWNSGALTSGVHTFPAVLQSSGLYSLSSVVTVPSSSLGTQTYICNVNHKPSNTKVDKKVEPKSCDKTHTCPPCPAPEAAGGPSVFLFPPKPKDTLMISRTPEVTCVVVDVSHEDPEVKFNWYVDGVEVHNAKTKPREEQYNSTYRVVSVLTVLHQDWLNGKEYKCKVSNKALPAPIEKTISKAKGQPREPQVYTLPPSRDELFDPMYYYNQVSLTCLVKGFYPSDIAVEWESNGEPLWDYKTTPPVLDSDGSFFLYSKLTVWRDRWEDGNVFSCSVMHEALHNHYTQKSLSLSPG
light: DVVMTQTPLSLPVSLGDQASISCRSSQSLVHSNGNTYLRWYLQKPGQSPKVLIYKVSNRFSGVPDRFSGSGSGTDFTLKISRVEAEDLGVYFCSQSTHVPWTFGGGTKLEIKRTVAAPSVFIFPPSDEQLKSGTASVVCLLNNFYPREAKVQWKVDNALQSGNSQESVTEQDSKDSTYSLSSTLTLSKADYEKHKVYACEVTHQGLSSPVTKSFNRGEC
notes: Human IgG1 with anti-FITC 4420 Fab and LALA; The mouse OX40 site is in the CH3 domain; also called mFS20-232-91AA/4420; anti-mouse OX40 Fcab FS20m-232-91 in mock (4420 LALA) mAb^2 format
B3: FS20-31-102AA/4420 (bispecific antibody, human IgG1, kappa, L234A L235A)
heavy: EVKLDETGGGLVQPGRPMKLSCVASGFTFSDYWMNWVRQSPEKGLEWVAQIRNKPYNYETYYSDSVKGRFTISRDDSKSSVYLQMNNLRVEDMGIYYCTGSYYGMDYWGQGTSVTVSSASTKGPSVFPLAPSSKSTSGGTAALGCLVKDYFPEPVTVSWNSGALTSGVHTFPAVLQSSGLYSLSSVVTVPSSSLGTQTYICNVNHKPSNTKVDKKVEPKSCDKTHTCPPCPAPEAAGGPSVFLFPPKPKDTLMISRTPEVTCVVVDVSHEDPEVKFNWYVDGVEVHNAKTKPREEQYNSTYRVVSVLTVLHQDWLNGKEYKCKVSNKALPAPIEKTISKAKGQPREPQVYTLPPSRDEWASGEVSLTCLVKGFYPSDIAVEWESNGQPEVDYKTTPPVLDSDGSFFLYSKLTVPYWRWGVPRTFSCSVMHEALHNHYTQKSLSLSPG
light: B2 light
notes: Human IgG1 with anti-FITC 4420 Fab and LALA; The OX40 site is in the CH3 domain; also called FS20-31-102 Fcab in mock (4420 LALA) mAb^2 format
B4: FS20-31-108AA/4420 (bispecific antibody, human IgG1, kappa, L234A L235A)
heavy: B3 heavy with Q387E, P388K, V390I, V420A, P421K
light: B2 light
notes: Human IgG1 with anti-FITC 4420 Fab and LALA; The OX40 site is in the CH3 domain; also called FS20-31-108 Fcab in mock (4420 LALA) mAb^2 format
B5: FS20-22-85AA/4420 (bispecific antibody, human IgG1, kappa, L234A L235A)
heavy: EVKLDETGGGLVQPGRPMKLSCVASGFTFSDYWMNWVRQSPEKGLEWVAQIRNKPYNYETYYSDSVKGRFTISRDDSKSSVYLQMNNLRVEDMGIYYCTGSYYGMDYWGQGTSVTVSSASTKGPSVFPLAPSSKSTSGGTAALGCLVKDYFPEPVTVSWNSGALTSGVHTFPAVLQSSGLYSLSSVVTVPSSSLGTQTYICNVNHKPSNTKVDKKVEPKSCDKTHTCPPCPAPEAAGGPSVFLFPPKPKDTLMISRTPEVTCVVVDVSHEDPEVKFNWYVDGVEVHNAKTKPREEQYNSTYRVVSVLTVLHQDWLNGKEYKCKVSNKALPAPIEKTISKAKGQPREPQVYTLPPSRDEYWDQEVSLTCLVKGFYPSDIAVEWESNGDEQFAYKTTPPVLDSDGSFFLYSKLTLDQYRWNPFDDFSCSVMHEALHNHYTQKSLSLSPG
light: B2 light
notes: Human IgG1 with anti-FITC 4420 Fab and LALA; The OX40 site is in the CH3 domain; also called FS20-22-85 Fcab in mock (4420 LALA) mAb^2 format
B6: FS20-31-94AA/4420 (bispecific antibody, human IgG1, kappa, L234A L235A)
heavy: B3 heavy with A360E, S361H, Q387I, P388R, V390H, V420G, R422G
light: B2 light
notes: Human IgG1 with anti-FITC 4420 Fab and LALA; also called FS20-31-94 Fcab in mock (4420 LALA) mAb^2 format
B7: FS20-31-115AA/4420 (bispecific antibody, human IgG1, kappa, L234A L235A)
heavy: B3 heavy with Q387E, P388Q, V390F, V420A, P421K
light: B2 light
notes: Human IgG1 with anti-FITC 4420 Fab and LALA; The OX40 site is in the CH3 domain; also called FS20-31-115 Fcab in mock (4420 LALA) mAb^2 format
B8: FS20-22-49AA/4420 (bispecific antibody, human IgG1, kappa, L234A L235A)
heavy: B5 heavy with L413V, F421A, D423Y
light: B2 light
notes: Human IgG1 with anti-FITC 4420 Fab and LALA; The OX40 site is in the CH3 domain; also called FS20-22-49 Fcab in mock (4420 LALA) mAb^2 format; FS20-22-49/4420 (LALA)
B9: Fcab FS20-22 (designed binder)
chain: TCPPCPAPELLGGPSVFLFPPKPKDTLMISRTPEVTCVVVDVSHEDPEVKFNWYVDGVEVHNAKTKPREEQYNSTYRVVSVLTVLHQDWLNGKEYKCKVSNKALPAPIEKTISKAKGQPREPQVYTLPPSRDEYWDQEVSLTCLVKGFYPSDIAVEWESNGQPENNYKTTPPVLDSDGSFFLYSKLTVDQYRWNPGGYFSCSVMHEALHNHYTQKSLSLSPG
notes: Soluble Fcab
B10: Fcab FS20-31 (designed binder)
chain: TCPPCPAPELLGGPSVFLFPPKPKDTLMISRTPEVTCVVVDVSHEDPEVKFNWYVDGVEVHNAKTKPREEQYNSTYRVVSVLTVLHQDWLNGKEYKCKVSNKALPAPIEKTISKAKGQPREPQVYTLPPSRDEYYSGEVSLTCLVKGFYPSDIAVEWESNGQPENDYKTTPPVLDSDGSFFLYSKLTVPYWRWGGPGTFSCSVMHEALHNHYTQKSLSLSPG
notes: Soluble Fcab

How the values were obtained:
[1] = biological target: T1, mouse OX40 receptor, cell-expressed …; test: cell-based or functional assay
[2] = biological target: T1, mouse OX40 receptor, cell-expressed …; test: flow cytometry on DO11.10-mOX40 cells
Protocol: Non-specific binding was also assessed by testing for binding to HEK cells not expressing OX40 by flow cytometry.
DO11.10 mOX40 or HEK cell suspensions were prepared in PBS+2% BSA (Sigma, A7906) and seeded at 4×10⁶ cell/ml with 50 μl/well in V-bottomed 96-well plates (Costar, 3897). […] The data was fit using log (agonist) vs response in GraphPad Prism Software.

[3] = biological target: T1, mouse OX40 receptor, cell-expressed …; test: cell-based or functional assay; remark: listed apart in the source
[4] = biological target: T1, mouse OX40 receptor, cell-expressed …; test: cell-based or functional assay; remark: listed apart in the source
[5] = biological target: T1, mouse OX40 receptor, cell-expressed …; test: cell-based or functional assay; remark: listed apart in the source
human NGFR = biological target: T2, human NGFR; test: SPR (Biacore T200), receptor on CM5 chip
human TNFRII = biological target: T3, human TNFRII; test: SPR (Biacore T200), receptor on CM5 chip
human CD40 = biological target: T6, human CD40 (human, UniProt P25942 21-193, limits assumed); test: SPR (Biacore T200), receptor on CM5 chip
T6 construct: Amine-coupled to a CM5 chip

human CD137 = biological target: T7, human CD137 (human, UniProt Q07011 24-186, limits assumed); test: SPR (Biacore T200), receptor on CM5 chip
T7 construct: Amine-coupled to a CM5 chip; also called 4-1BB

human TNFRI = biological target: T4, human TNFRI; test: SPR (Biacore T200), receptor on CM5 chip
[6] = biological target: T5, human OX40 receptor, cell-expressed …; test: cell binding, DO11.10-hOX40 cells, soluble Fcab

T6 sequence (P25942 21-193 limits assumed): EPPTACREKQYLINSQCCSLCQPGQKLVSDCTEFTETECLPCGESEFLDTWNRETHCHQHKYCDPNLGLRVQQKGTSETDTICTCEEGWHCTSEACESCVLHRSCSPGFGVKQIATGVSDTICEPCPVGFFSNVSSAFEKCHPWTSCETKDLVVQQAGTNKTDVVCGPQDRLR

| binding result (human NGFR) | binding result (human TNFRII) | binding result (human CD40) | binding result (human CD137) | binding result (human TNFRI) | further results | Binder |
| --- | --- | --- | --- | --- | --- | --- |
| – | – | – | – | – | EC50 of IL-2 release, crosslinked (anti-human CH2 mAb) [1]: 1.75 nM; EC50 [2]: 3.1 nM; EC50 of IL-2 release, Xlink (anti-hCH2) [3]: 0.463 nM | B1 |
| – | – | – | – | – | EC50 of IL-2 release, crosslinked (FITC-dextran) [1]: 0.67 nM; EC50 [2]: 1.01 nM; EC50 of IL-2 release, HPAC cells present, + FITCdex [4]: 0.548 nM; EC50 of IL-2 release, HPAC cells present, + G1/E2A + a-hFc + FITCdex [4]: 2.09 nM; EC50 of IL-2 release, Xlink (FITC-dextran) [5]: 0.629 nM; EC50 of IL-2 release, Xlink (FITC-dextran) [3]: 0.158 nM; EC50 of IL-2 release, no crosslinker [3]: 76.4 nM | B2 |
| no binding (tested: 1 µM) | no binding (tested: 1 µM) | no binding (tested: 1 µM) | no binding (tested: 1 µM) | no binding (tested: 1 µM) | – | B3 |
| no binding (tested: 1 µM) | no binding (tested: 1 µM) | no binding (tested: 1 µM) | no binding (tested: 1 µM) | no binding (tested: 1 µM) | – | B4 |
| no binding (tested: 1 µM) | no binding (tested: 1 µM) | no binding (tested: 1 µM) | no binding (tested: 1 µM) | no binding (tested: 1 µM) | – | B5 |
| no binding (tested: 1 µM) | no binding (tested: 1 µM) | no binding (tested: 1 µM) | no binding (tested: 1 µM) | no binding (tested: 1 µM) | – | B6 |
| no binding (tested: 1 µM) | no binding (tested: 1 µM) | no binding (tested: 1 µM) | no binding (tested: 1 µM) | no binding (tested: 1 µM) | – | B7 |
| no binding (tested: 1 µM) | no binding (tested: 1 µM) | no binding (tested: 1 µM) | no binding (tested: 1 µM) | no binding (tested: 1 µM) | – | B8 |
| – | – | – | – | – | binding result [6]: binds | B9 |
| – | – | – | – | – | binding result [6]: binds | B10 |
